* marks the point of attachment. AMC = Cc1cc(=O)oc2cc(N*)ccc12
How the values were obtained:
[1] = biological target: Triticain-α (Triticum aestivum L.)
[2] = biological target: Ta-P7 (Triticum aestivum L.)
[3] = biological target: Ta-V6 (Triticum aestivum L.)

B1: acetyl-Pro-Leu-Val-Gln-7-amino-4-methylcoumarin (peptide)
peptide: Ac-PLVQ-{AMC}
SMILES: CC(=O)N1CCC[C@H]1C(=O)N[C@@H](CC(C)C)C(=O)N[C@H](C(=O)N[C@@H](CCC(N)=O)C(=O)Nc1ccc2c(C)cc(=O)oc2c1)C(C)C
KM of Ac-PLVQ-AMC hydrolysis, pH 3.6, 37 °C [1]: 21.5 µM
KM of Ac-PLVQ-AMC hydrolysis, pH 4.6, 37 °C [1]: 34.6 µM
KM of Ac-PLVQ-AMC hydrolysis, pH 5.6, 37 °C [1]: 46 µM
KM of Ac-PLVQ-AMC hydrolysis, pH 6.5, 37 °C [1]: 49.4 µM
KM of Ac-PLVQ-AMC hydrolysis, pH 7.5, 37 °C [1]: 583 µM
KM of Ac-PLVQ-AMC hydrolysis, pH 3.6, 37 °C [2]: 44.7 µM
KM of Ac-PLVQ-AMC hydrolysis, pH 4.6, 37 °C [2]: 32.2 µM
KM of Ac-PLVQ-AMC hydrolysis, pH 5.6, 37 °C [2]: 24.5 µM
KM of Ac-PLVQ-AMC hydrolysis, pH 6.5, 37 °C [2]: 31.4 µM
KM of Ac-PLVQ-AMC hydrolysis, pH 7.5, 37 °C [2]: 35.3 µM
KM of Ac-PLVQ-AMC hydrolysis, pH 3.6, 37 °C [3]: 16.4 µM
KM of Ac-PLVQ-AMC hydrolysis, pH 4.6, 37 °C [3]: 20.5 µM
KM of Ac-PLVQ-AMC hydrolysis, pH 5.6, 37 °C [3]: 22.6 µM
KM of Ac-PLVQ-AMC hydrolysis, pH 6.5, 37 °C [3]: 26.9 µM
KM of Ac-PLVQ-AMC hydrolysis, pH 7.5, 37 °C [3]: 29.2 µM
